Laboratory results: the supplement of paper PMC10567573

B1: FADS1 (parent)
chain: LNFQIEHHLFPTMPRHNYHKVAPL
B2: DLC1 (parent)
chain: HVTHWMGQPFNSDDRNTACHHGLV

Variants of: B1
Experiment: protein stability index of a GFP-peptide fusion (GPS, HEK-293T) (PSI 1-6); higher = more stable
Conditions: c terminus: a fixed tail appended
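Also: lentivirally expressed fusions sorted by FACS into six bins by GFP to DsRed ratio, PSI derived from sequencing read proportions per bin multiplied by bin number.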

Protein stability index, by site and new letter:
N2: I 3.16; R 2.09; Q 1.91; M 1.53; Y 1.77; E 2.42; H 2.37; L 3.82; T 2.76; A 2.02
H7: R 1.65; T 2.82; E 1.76; N 1.4; A 2.31; G 1.55; P 2.19; L 3.47; I 3.32; C 3.38
M13: K 1.75; C 1.75; D 1.82; G 2.13; Q 1.15; I 2.35; F 1.97; H 2.04
I5: S 2.18; Y 2.57; Q 1.83; T 1.65; H 1.83
Y18: V 1.51; L 1.69; G 1.81; A 2.95; W 2.78; R 1.64; S 1.69; N 1.81; E 2.65
K20: Q 3.36; H 1.46; G 1.99
F3: Q 2.17; N 2.52; Y 1.37; M 2.31; E 2.65; A 2.58; K 1.88
V21: G 2.38; E 2.32; T 2.23; R 1.7; Q 1.46; S 1.98; L 2.24; D 2.41
P23: I 2.42; S 1.88; A 2.81; Y 1.79; M 2.06; E 2.21; K 1.54
L24: P 2.3; Q 2.02; S 1.15; G 2.35; T 1.56; H 2.27; C 2.52; W 2.03; V 1.5; F 2.15; D 2.03
F10: W 2; V 1.05; K 2.14; R 1.87; S 1.66; P 1.24; E 1.24; H 3.04; N 2.28; I 2.97
L9: E 1.23; P 1.5; N 1.57; S 2.71; M 1.95
H16: K 1.22; E 2.52; P 2.19; R 2.13; S 1.28; Y 3.52
H19: S 2.35; K 2.3; N 2.27; M 3.8; L 1.54; E 2.25; V 2.8; I 3.24
H8: C 2.41; F 2.4; Q 2.35; P 2.11; R 1.74
Q4: V 3.42; S 1.3; K 1.92; R 1.6; I 3.5; G 2.08; Y 3.01
P11: H 3.14; T 2.24; K 2.46; I 2.19; Y 2.96; Q 2.73; A 2.35; C 2.3; L 2.53
N17: L 3.08; H 1.81; M 1.58; K 1.27; D 2.28; G 1.27; S 2.02
L1: C 2.11; T 2.03; N 1.95; D 1.31; K 2.03; H 2.1; Y 1.93; I 2.2; A 1.91
R15: L 2.42; V 2.01; K 2.35; F 2.68
A22: C 1.65; H 1.89; L 2.05; D 1.92
E6: S 1.8; C 2.65; H 2.31; M 2.24; A 2.54; Q 2.38; D 2.54; V 3.6
P14: Q 2.54; Y 3.17; E 2.13; N 3.36; F 2.39; T 1.9; D 2.52
T12: E 2.42; D 1.98; H 1.46; W 2.45; I 2.5; M 1.73; A 2.56; N 1.77; Y 2.5

Variants of: B2
Experiment: as above
Conditions: c terminus: a fixed tail appended

Protein stability index, by site and new letter:
F10: C 1.94; S 2.35; A 2.53; L 2.01; D 3.03; R 2.79; V 2.36
N11: G 2.13; Y 2.26; I 1.94; P 2.3; A 2.07; R 2.17; V 2.62; H 1.8
N16: W 1.3; V 1.22
M6: K 3.28; A 2.75; V 2.48
V2: S 2.62; E 3.78; H 2.35; N 3.11; Y 2.42
Q8: L 1.22; H 2.32; Y 1.74; W 1.55
G22: L 2.23; T 2.1; F 1.57; K 2; C 2.17; H 1.99; Q 2.1; Y 1.6; N 1.99; P 2.05; M 1.96
L23: W 1.86; D 2.84; M 2.13; T 2.26; K 2.27; I 1.92
H1: L 2.14; M 2.5; S 2.61; P 3.08; E 2.78; Y 3.14; C 2.04; T 2.91
T3: E 2.38; F 1.69; M 2.05; I 2.01; P 3.11; V 2.78; Q 1.93; D 1.66; K 1.91
H21: R 2.26; V 1.9; I 1.85; G 2.37; F 1.64; Y 1.85
T17: A 1.99; I 2.25; D 2.65; V 2.1; S 2.36; K 2.01; Y 1.86
V24: G 1.92; T 2.39; C 2.16; I 2.08
R15: C 1.99; Q 2.01; L 2.29; I 1.95; G 1.94; Y 1.74
C19: L 2.02; W 1.48; D 2.68; A 2.5; M 2.31; I 2.4; R 2.4
W5: S 4; T 3.43; F 2.72; Y 3.01; H 3.8; M 3.04; K 3.12
G7: A 2.35; P 2.24; H 1.97; Q 2.07; E 2.63; D 2.46; I 2.03
A18: S 2.21; E 2.53; K 1.94; C 1.83; V 2.33; N 2.44; R 2; I 1.76; F 2.24; Q 2.47
S12: P 2.29; E 2.52; G 2.34; T 2.02; H 2.04; W 1.92; K 2.51
D13: P 2.14; K 2.32; G 2; L 2.05; F 1.81
P9: K 1.9; A 2.36; I 1.75; D 1.99; W 1.6; G 1.88; N 2.2
H20: C 2.25; L 1.6; G 2.16; V 2.34; D 2.36; E 2.44; A 2.37
H4: P 2.17; F 1.72; G 1.5; E 2.63; Y 1.44; M 2.72
D14: P 2.16; A 1.9; I 1.53; Q 2.31; G 1.86; W 1.65; C 1.68; H 2.66; E 1.7
